According to patent CN116003603A (CR BIO MEDICAL INC, dated 2023):

Key:
[1] = target: T1, CLDN18.2 (antigen of the ka/kd/KD measurement, species and form not stated); experiment: affinity measurement, method not described (Table 2-2, headed P1530)
[2] = target: T2, CLDN18.2 (on CLDN18.2过表达细胞, species not stated); experiment: flow cytometry, antibody titration on CLDN18.2 over-expressing cells, MFI (Table 2-2, headed P1530)
T2 construct: whole, on cells

[3] = target: T1, CLDN18.2 (antigen of the ka/kd/KD …); experiment: affinity measurement, method not described
[4] = target: T2, CLDN18.2 (on CLDN18.2过表达细胞, species not …); experiment: flow cytometry, antibody titration on CLDN18.2 over-expressing cells, MFI

T1 sequence (P56856 other isoform, or with tags, fused parts or gaps): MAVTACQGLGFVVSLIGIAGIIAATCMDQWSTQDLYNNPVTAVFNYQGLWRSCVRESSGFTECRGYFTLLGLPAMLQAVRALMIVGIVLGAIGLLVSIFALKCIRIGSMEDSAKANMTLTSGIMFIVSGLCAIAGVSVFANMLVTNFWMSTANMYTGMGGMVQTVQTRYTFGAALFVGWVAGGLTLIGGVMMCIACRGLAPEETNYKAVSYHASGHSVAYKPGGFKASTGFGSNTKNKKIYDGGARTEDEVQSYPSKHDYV

Row | Kd [1] [nM] | koff [1] [s⁻¹] | kon [1] [M⁻¹ s⁻¹] | EC50 [2] [µg/mL] | Kd [3] [nM] | koff [3] [s⁻¹] | kon [3] [M⁻¹ s⁻¹] | EC50 [4] [µg/mL] | Binder
1 | 6.8 | 0.00355 | 523000 | 0.62 |  |  |  |  | CLDN-BC-P1530-hH1 (antibody, V domains shown, also called P1530-IgG1) VH: QVQLVESGGGLVQPGGSLRLSCAASRFTFSNYAMNWVRQAPGKGLEWVSSISGSGGSSYYADSVKGRFTISKDNSQNMLYLQMNSLRAEDTAVYYCAKADWKYGYYGMDVWGQGTTVTVSS VL: not shown
2 |  |  |  |  | 5.9 | 0.00293 | 497000 | 0.69 | CLDN-BC-P1531-hH1 (antibody, V domains shown, also called CLN-P1531-hH1; P1531-IgG1) VH: QVQLVESGGGLVQPGGSLRLSCAASRFTFSNYAMNWVRQAPGKGLEWVSSISGSGGSSYYADSVKGRFTISKDNSQNMLYLQMNSLRAEDTAVYYCAKADWKYGYYGMDVWGQGTMVTVSS VL: not shown
